Results on five molecules are retold here after patent US20220144960A1 (NANJING LEGEND BIOTECH, published 2022).

Where only a bound is given, the exact number is not on record here.

For experiment [1], the target named is T1, recombinant human CD30 extra cellular domain (ECD) protein (human, UniProt P28908 19-379).
T1 construct: Bought from R&D systems; also called rhCD30; human CD30 ECD
T1 sequence: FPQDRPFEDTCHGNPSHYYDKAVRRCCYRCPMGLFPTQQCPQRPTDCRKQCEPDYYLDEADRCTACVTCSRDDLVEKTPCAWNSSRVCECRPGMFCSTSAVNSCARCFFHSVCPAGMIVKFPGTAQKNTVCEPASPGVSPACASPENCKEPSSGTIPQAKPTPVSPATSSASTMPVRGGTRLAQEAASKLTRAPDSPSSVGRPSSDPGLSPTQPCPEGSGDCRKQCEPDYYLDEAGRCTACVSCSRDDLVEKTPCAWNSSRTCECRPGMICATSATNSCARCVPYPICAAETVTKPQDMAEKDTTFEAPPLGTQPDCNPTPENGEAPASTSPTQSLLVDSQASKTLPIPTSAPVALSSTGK
Briefly: SPR Biacore T200, scFv captured, 100.0 nM human CD30 as analyte, single curve. Here is the method:
(§1) Some of these unique binders were subjected to for further characterization by surface plasmon resonance (SPR) on a BIAcore T200 instrument (GE Healthcare). The experiment was carried out as follows. The crude sdAb/Fab proteins were captured through an affinity tag (6×Histidine tag) onto the sensorchip. High-concentration (100.0 nM) of human CD30 (R&D systems, Cat. #6126-CD) flowed over the sensorchip surface, and were allowed to bind the antibody fragments for 300 s followed by injection of the running buffer to allow dissociation of the complex. On-rate ([…] and off-rate (kd) were roughly calculated based on one association and dissociation curve, and were used to estimate the equilibrium dissociation constant (KD). 5F11 scFv (SEQ ID NO:216, prepared according to WO2017066122) was used as a positive control. Data were summarized in Table 3 below. The first 10 antibodies in Table 3 were sdAbs with amino acid sequence ID numbers summarized in Table 1, the last antibody was 5F11 scFv, and the remainings were human Fabs with CDR and scFv amino acid sequence ID numbers in Table 2.

Experiment [2] concerns the target T1, recombinant human CD30 extra cellular …. The experiment is described as follows: SPR Biacore T200, scFv captured, 100.0 nM human CD30 as analyte, single curve; beyond off-rate detection limit. Here is the method: as §1
In general terms: Surface plasmon resonance follows binding to a sensor surface in real time, without labels.

Experiment [3] has the same target. The experiment is described as follows: SPR Biacore T200, scFv captured, 100.0 nM human CD30 as analyte, single curve. Here is the method:
as §1
This is another data set of the same source.

In experiment [4] the target is T2, human CD30 CRD6 (E282-K379) Fc fusion protein with human IgG1 Fc fragment at the C terminus (human).
T2 construct: also called CRD6 construct
Briefly: SPR, captured scFv, human IgG1 Fc-fused CRD protein as analyte. Here is the method:
as §1, with “2. […]” for “2.”

Another experiment concerns the target T3, rhesus CD30 ECD (rhesus, UniProt P28908 19-379 (human entry)).
T3 construct: Produced in house; also called recombinant rhesus CD30; rhesus CD30 protein
T3 chain: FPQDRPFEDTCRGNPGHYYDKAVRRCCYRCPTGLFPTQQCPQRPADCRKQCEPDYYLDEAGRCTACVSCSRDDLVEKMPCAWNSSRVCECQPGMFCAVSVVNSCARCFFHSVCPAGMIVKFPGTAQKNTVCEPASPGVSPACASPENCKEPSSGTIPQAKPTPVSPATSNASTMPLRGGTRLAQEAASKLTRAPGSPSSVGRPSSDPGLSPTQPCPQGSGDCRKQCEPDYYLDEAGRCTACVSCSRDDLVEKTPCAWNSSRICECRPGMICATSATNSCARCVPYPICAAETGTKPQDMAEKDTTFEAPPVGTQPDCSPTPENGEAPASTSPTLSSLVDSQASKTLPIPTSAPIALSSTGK
The experiment is described as follows: ELISA on rhesus CD30 ECD protein; member of the group by paragraph 437. Background: ELISA stands for enzyme-linked immunosorbent assay.

Experiment [5] deals with T1, recombinant human CD30 extra cellular …. Briefly: SPR Biacore T200, His-tagged sdAb/Fab captured, 100.0 nM human CD30 as analyte, single curve. Here is the method:
as §1

In experiment [6] the target is T4, human CD30 CRD1 (F19-Q68) Fc fusion protein with human IgG1 Fc fragment at the C terminus (human).
T4 construct: also called CRD1 construct
The experiment is described as follows: ELISA on the CD30 fragment CRD1, absorbance OD 450 nm; sdAb concentration not given.

Experiment [7] concerns the target T5, human CD30 CRD3 (E107-S153) Fc fusion protein with human IgG1 Fc fragment at the C terminus (human).
T5 construct: also called CRD3 construct
Briefly: SPR, captured Fab, Fc-fused CRD protein as analyte. Here is the method:
as §1
(§2) Cysteine rich domains (CRDs) of human CD30 and the flanking residues, i.e., CRD1 (F19-Q68, SEQ ID NO: 3), CRD2 (R66-E107, SEQ ID NO: 4), CRD3 (E107-5153, SEQ ID NO: 5), CRD4 (E150-Q243, SEQ ID NO: 6), CRD5 (R241-E282, SEQ ID NO: 7) and CRD6 (E282-K379, SEQ ID NO: 8), were produced as Fc fusion proteins with human IgG1 Fc fragment (SEQ ID NO: 217) at the C terminus and used for epitope determination using SPR following the protocol similar to what was described above, only the analytes used were human IgG1 Fc-fused CRD proteins.

The target of experiment [8] is T2, human CD30 CRD6 (E282-K379) Fc fusion …. The experiment is described as follows: SPR, captured Fab, Fc-fused CRD protein as analyte. Here is the method: as §1, §2
Experiment [9] addresses T6, human CD30 CRD2 (R66-E107) Fc fusion protein with human IgG1 Fc fragment at the C terminus (human).
T6 construct: also called CRD2 construct
Briefly: SPR, captured Fab, Fc-fused CRD protein as analyte. Here is the method:
as §1, §2

The target in experiment [10] is T4, human CD30 CRD1 (F19-Q68) Fc fusion …. Briefly: SPR, captured Fab, Fc-fused CRD protein as analyte. Here is the method: as §1, §2
Experiment [11] deals with T7, human CD30 CRD4 (E150-Q243) Fc fusion protein with human IgG1 Fc fragment at the C terminus (human).
T7 construct: also called CRD4 construct
Briefly: SPR, captured Fab, Fc-fused CRD protein as analyte. Here is the method: as §1, §2

Experiment [12] addresses T8, human CD30 CRD5 (R241-E282) Fc fusion protein with human IgG1 Fc fragment at the C terminus (human).
T8 construct: also called CRD5 construct
The experiment is described as follows: SPR, captured Fab, Fc-fused CRD protein as analyte. Here is the method:
as §1, §2

T2 sequence (chain, as listed by the source limits assumed): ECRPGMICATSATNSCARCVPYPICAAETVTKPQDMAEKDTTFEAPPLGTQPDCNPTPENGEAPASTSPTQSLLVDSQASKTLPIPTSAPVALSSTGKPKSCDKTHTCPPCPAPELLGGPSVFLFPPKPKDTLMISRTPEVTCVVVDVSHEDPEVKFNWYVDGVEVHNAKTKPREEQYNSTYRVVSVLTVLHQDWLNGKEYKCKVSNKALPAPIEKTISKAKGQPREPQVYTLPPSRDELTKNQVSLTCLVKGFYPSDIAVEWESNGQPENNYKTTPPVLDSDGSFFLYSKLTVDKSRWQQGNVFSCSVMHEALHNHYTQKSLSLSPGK
T7 sequence (chain, as listed by the source limits assumed): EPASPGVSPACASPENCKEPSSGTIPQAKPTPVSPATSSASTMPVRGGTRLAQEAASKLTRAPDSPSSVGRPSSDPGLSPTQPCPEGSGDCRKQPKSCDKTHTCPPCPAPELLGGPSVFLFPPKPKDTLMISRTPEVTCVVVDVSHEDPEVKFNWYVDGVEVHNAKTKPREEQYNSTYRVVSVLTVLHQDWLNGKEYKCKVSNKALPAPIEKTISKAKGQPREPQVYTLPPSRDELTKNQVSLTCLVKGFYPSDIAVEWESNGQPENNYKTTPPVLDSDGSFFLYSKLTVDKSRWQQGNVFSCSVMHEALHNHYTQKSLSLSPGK

B1: 5F11 scFv (scFv)
scFv: DIQMTQSPTSLSASVGDRVTITCRASQGISSWLTWYQQKPEKAPKSLIYAASSLQSGVPSRFSGSGSGTDFTLTISSLQPEDFATYYCQQYDSYPITFGQGTRLEIKGSTSGSGKPGSGEGSTKGQVQLQQWGAGLLKPSETLSLTCAVYGGSFSAYYWSWIRQPPGKGLEWIGDINHGGGTNYNPSLKSRVTISVDTSKNQFSLKLNSVTAADTAVYYCASLTAYWGQGSLVTVSS
notes: Positive control; captured like the other fragments, tag not spelled out for it
Usually Kd stands for the concentration at which binding is half-saturated. The term kon denotes the second-order rate constant of association. In general, koff refers to a measure of how fast the partners let go of each other. On to B1, for which, in [1], the Kd is less than 0.0862 nM and the on-rate constant (kon) came out at 120000 M⁻¹ s⁻¹. The off-rate (koff) in experiment [2] is less than 1e-05 s⁻¹. In [3], the Kd is less than 0.1 nM. In addition, the binding result in experiment [4] is reported as “binds”.

B2: AS53445 sdAb (VHH)
VHH: QVQLVESGGGSVQAGGSLRLSCTASGYIFCMGWFRQAPGKAREGIATIYTGGDSTYYDDSVKGRFTISRDNAKNTVYLQMNSLKPEDTAMYYCAAGGQECYLTNWVSYWGQGTQVTVSS
notes: Camel sdAb
B2: in the experiment with rhesus CD30 ECD, the binding result is “binds”. In addition, in experiment [5], the Kd is 80 nM, the koff was 0.0085 s⁻¹, the on-rate (kon) was 110000 M⁻¹ s⁻¹ and the “rhCD30 Binding (RU)” value is 101 RU. Besides, the binding result in experiment [6] is on record as “binds”.

B3: AS53574 sdAb (VHH)
VHH: QVKLVESGGGSVQAGGSLRLSCAASGYIYSSNCMGWFRQAPGKEREWVARIHTGSGSTYYADSVKGRFTISQDNAKNTVYLQMNSLRPEDTAMYDCAAGRVVLGAVVCTNEYWGQGTQVTVSS
notes: Camel sdAb
Turning to B3, the binding result with rhesus CD30 ECD was “binds”. Besides, in experiment [5], the Kd came out at 3 nM, the koff is 0.00021 s⁻¹, the kon came to 69000 M⁻¹ s⁻¹ and the “rhCD30 Binding (RU)” value came out at 569 RU. In addition, in experiment [6], the binding result is “binds”.

B4: AS57911 human Fab (Fab, V domains shown)
VH: EVQLVESGGGLVQPGGSLRLSCAASGFNISSSYIHWVRQAPGKGLEWVAYISSYYSYTYYADSVKGRFTISADTSKNTAYLQMNSLRAEDTAVYYCARGYPYGMDYWGQGTLVTVSS
VL: DIQMTQSPSSLSASVGDRVTITCRASQSVSSAVAWYQQKPGKAPKLLIYSASSLYSGVPSRFSGSRSGTDFTLTISSLQPEDFATYYCQQSHALITFGQGTKVEIK
notes: Human Fab from a synthetic human Fab library, crude protein from E. coli with 6xHistidine tag
As for B4, the binding result with rhesus CD30 ECD is reported as “binds”; in experiment [7], “no binding”; in [8] it was “no binding”; in [9] it was “no binding”; in experiment [10] it was “no binding”; in [11] it was “no binding”. Further, in experiment [12], the binding result was “no binding”. For the same molecule, the dissociation constant Kd in experiment [5] worked out at 170 nM. Also, in experiment [5], the koff turned out to be 0.015 s⁻¹. Moreover, in experiment [5], the kon turned out to be 92000 M⁻¹ s⁻¹. Also, in experiment [5], the “rhCD30 Binding (RU)” value came to 44.6 RU.

B5: AS57659 human Fab (Fab, V domains shown)
VH: EVQLVESGGGLVQPGGSLRLSCAASGFNIYSYYIHWVRQAPGKGLEWVASIYSSYSSTYYADSVKGRFTISADTSKNTAYLQMNSLRAEDTAVYYCARSWFSYPGLDYWGQGTLVTVSS
VL: DIQMTQSPSSLSASVGDRVTITCRASQSVSSAVAWYQQKPGKAPKLLIYSASSLYSGVPSRFSGSRSGTDFTLTISSLQPEDFATYYCQQPYYLITFGQGTKVEIK
notes: as for B4
Regarding B5, the binding result with rhesus CD30 ECD is “binds”; in experiment [7], “no binding”; in experiment [8], “no binding”; in experiment [9], “no binding”; in [10] it was “no binding”; in experiment [11] it was “no binding”. Besides, the binding result in experiment [12] is listed as “no binding”. Also, in [5], the dissociation constant Kd was 27 nM. Moreover, in [5], the koff came out at 0.0022 s⁻¹. In addition, the kon in experiment [5] came out at 82000 M⁻¹ s⁻¹. Also, in experiment [5], the “rhCD30 Binding (RU)” value came to 83.6 RU.
